Patent US5834184A, “In vivo selection of RNA-binding peptides” (priority 1995, dated 1998)

B1: N: wild-type phage λ N antiterminator protein (protein, UniProt P03045 1-107, looked up)
Antitermination protein N: MDAQTRRRERRAEKQAQWKAANPLLVGVSAKPVNRPILSLNRKPKSRVESALNPIDLTVLAEYHKQIESNLQRIERKNQRTWYSKPGERGITCSGRQKIKGKSIPLI

Tests used:
[1] = Circular dichroism, helical content of synthetic peptides; format: physicochemical; settings: estimated from ellipticity at 222 nm; 10 mM potassium phosphate pH 7.5, 100 mM KF, 4° C. (FIG. 4B)
Method: FIG. 4B: Circular dichroism spectra of Rev34-40 (.box-solid.), Rev34-47 (S34) (.smallcircle.), Rev-like peptide clone 24 (.quadrature.), clone 57 peptide (.circle-solid.), and clone 41 peptide (.diamond.).
Circular dichroism was used to assess whether the selected peptides adopted α-helical conformations. Circular dichroism spectra were measured using an Aviv model 62DS spectropolarimeter. Samples were prepared in 10 mM potassium phosphate buffer, pH 7.5 and 100 mM KF. Spectra were recorded using a 1 cm pathlength cuvette at 4° C. and signal was averaged for 5 sec at each wavelength. Scans were repeated five times and averaged.

[2] = tested on: Nut reporter (λ Nut site, Box B); test: Antitermination assay (β-galactosidase reporter in E. coli), Nut reporter; format: cell-based, phage λ
Excerpt: (§1) Synthetic oligonucleotide cassettes encoding HIV Rev (ma[…]-aaaan) (SEQ ID NO: 26), BIV Tat (mg[…]gggn) (SEQ ID NO: 27), and HIV Tat ([…]) (SEQ ID NO: 28) peptides were cloned into the unique BsmI and NcoI sites of pBRptacN^* (Franklin, J. Mol Biol 231, 343 (1993)), creating fusion proteins at amino acid 20 of the λ N protein. The sequence encoding the fusion protein was linked to a tac promoter.
(§2) A second pACYC-derived vector was constructed encoding a tac promoter linked to the phage λ termination site Nut and a β-galactosidase structural gene. […]
(§3) Plasmids were transformed into E. coli strain N567 (Franklin & Doelling, J. Bacteriol. 171, 2513 (1989)) and bacteria were grown on LB plates or in tryptone broth containing 50 mg/l ampicillin and/or 15 mg/l chloramphenicol. In the β-galactosidase colony color assay, the number of +s represents visual estimation of blue intensity after growing colonies on plates containing 0.08 mg/ml X-gal and 0.024 mg/ml IPTG (to induce the tac promoters) for ~48 hr at 34° C. β-galactosidase activity was also measured in permeabilized cells using an ONPG colorimetric assay (Sambrook et al. Molecular Cloning (Cold Spring Harbor Laboratory Press, Cold Spring Harbor, 1989)). […]

[3] = tested on: Nut^- (a Nut site deletion) reporter; test: Antitermination assay (β-galactosidase reporter in E. coli), Nut^- reporter; format: cell-based, phage λ; parameters: key to X-gal: +++++, 200 units β-galactosidase/1 OD600 unit cells; ++++, 100-200 units; +++, 10-100 units; ++, 2-10 units; +, 1-10 units; -, background
Excerpt: as §1, §2, §3

[4] = tested on: HIV TAR; test: Antitermination assay (β-galactosidase reporter in E. coli), HIV TAR reporter; format: cell-based; parameters: key to X-gal: +++++, 200 units β-galactosidase/1 OD600 unit cells; ++++, 100-200 units; +++, 10-100 units; ++, 2-10 units; +, 1-10 units; -, background
Excerpt: as §1, §2, §3

[5] = tested on: BIV TAR; test: Antitermination assay (β-galactosidase reporter in E. coli), BIV TAR reporter; format: cell-based; parameters: key to X-gal: +++++, 200 units β-galactosidase/1 OD600 unit cells; ++++, 100-200 units; +++, 10-100 units; ++, 2-10 units; +, 1-10 units; -, background; settings: BIV TAR reporter (Table 1)
Excerpt: as §1, §2, §3

[6] = tested on: HIV RRE; test: Antitermination assay (β-galactosidase reporter in E. coli), HIV RRE reporter; format: cell-based; parameters: key to X-gal: +++++, 200 units β-galactosidase/1 OD600 unit cells; ++++, 100-200 units; +++, 10-100 units; ++, 2-10 units; +, 1-10 units; -, background; settings: HIV RRE reporter (Table 1)
Excerpt: as §1, §2, §3

[7] = permeabilized cells, 1 hr IPTG induction
[8] = colony colour on X-gal/IPTG plates

Molecule | helical content [1] [%] | X-gal ([2]; colony colour on X-gal/IPTG plates ~48 hr at 34° C.) | ONPG [2, 7] | X-gal ([3]; colony colour on X-gal/IPTG plates ~48 hr at 34° C., E. coli N567) | ONPG [3, 7] | X-gal [4, 8] | ONPG ([4]; permeabilized cells) | X-gal [5, 8] | ONPG ([5]; permeabilized cells) | X-gal [6, 8] | ONPG ([6]; permeabilized cells)
14 amino acid wild-type Rev peptide: synthetic 14 amino acid Rev peptide, succinyl capped, four alanines and amide at the C-terminus | 11 |  |  |  |  |  |  |  |  |  | 
B1 |  | +++++ (+++++, 200 units β-galactosidase/1 OD600 unit cells) | 1020 units β-galactosidase/1 OD600 | - | 1.9 units β-galactosidase/1 OD600 | - | 2.4 units β-galactosidase/1 OD600 | - | 2.9 units β-galactosidase/1 OD600 | - | 2.5 units β-galactosidase/1 OD600
